According to article PMC3331996 (Developmental Cell, 2012):

B1: Sec7f, Sec7(203-2009) purified fragment (domain or fragment, yeast, UniProt P11075 203-2009, looked up)
chain: PRSTHTRNISLSSNGSNTNSTIILVKTTLETILNDKDIKKNSNAQKAIERTLQKFKEFDPQTTNNPHYVDSILVFEALRASCRTKSSKVQSLALDCLSKLFSFRSLDETLLVNPPDSLASNDQRQDAADGITPPPKQKIIDAAIDTISDCFQGEGTDDRVELQIVRALSSCILEEDSSSLCHGASLLKAIRTIYNVFVFSLNPSNQGIAQATLTQIISSVYDKIDLKQSTSSAVSLSTKNHQQQSAIELSEASENAETPAPLTLENMDKLNDDEERLMDAQQPDSIAITNQDLAVKDAFLVFRVMAKICAKPLETELDMRSHAVRSKLLSLHIIYSIIKDHIDVFLSHNIFLPGKERVCFIDSIRQYLRLVLSRNAASPLAPVFEVTLEIMWLLIANLRADFVKEIPVFLTEIYFPISELTTSTSQQKRYFLSVIQRICNDPRTLVEFYLNYDCNPGMPNVMEITVDYLTRLALTRVEITQTQRSYYDEQISKSLSTYNFSQLPLLTSSNLSSSPDVGQVNLLFPLDFALKMVSLNCIVSVLRSLSSWAHKALNPNTHTANKVLLNTTSSARQESRSSLSNDVRSSIMTSNDDFKPTYEDEESRSLSSQNIDADDPTQFENLKLRKTALSECIAIFNNKPKKAIPVLIKKGFLKDDSPISIAKWLLETEGLDMAAVGDYLGEGDDKNIAIMHAFVDEFDFTGMSIVDALRSFLQSFRLPGEGQKIDRFMLKFAERFVDQNPGVFSKADTAYVLSYSLIMLNTDLHSSQIKNKMSLQEFLENNEGIDNGRDLPRDFLEGLFNEIANNEIKLISEQHQAMLSGDTNLVQQQQSAFNFFNSRDLTREAYNQVSKEISSKTELVFKNLNKNKGGPDVYYAASHVEHVKSIFETLWMSFLAALTPPFKDYDDIDTTNKCLEGLKISIKIASTFRINDARTSFVGALVQFCNLQNLEEIKVKNVNAMVILLEVALSEGNYLEGSWKDILLVVSQMERLQLISKGIDRDTVPDVAQARVANPRVSYESSRSNNTSFFDVWGKKATPTELAQEKHHNQTLSPEISKFISSSELVVLMDNIFTKSSELSGNAIVDFIKALTAVSLEEIESSENASTPRMFSLQKMVDVCYYNMDRIKLEWTPLWAVMGKAFNKIATNSNLAVVFFAIDSLRQLSMRFLDIEELSGFEFQHDFLKPFEYTVQNSGNTEVQEMIIECFRNFILTKSESIKSGWKPILESLQYTARSSTESIVLKTQLLVSNDIVTNHFENVFSQEDAFSELVGVFREITKNKRFQKLSLHALESLRKMTQNVADICFYNENKTEEERKHNDALLRGKDIFQDVWFPMLFCFNDTIMTAEDLEVRSRALNYMFDALVAYGGKFNDDFWEKICKKLLFPIFGVLSKHWEVNQFNSHDDLSVWLSTTLIQALRNLIALFTHYFESLNRMLDGFLGLLVSCICQENDTIARIGRSCLQQLILQNVSKFNEYHWNQIGDVFDKLFDLTTANELFDYDPLQQGRKSSVSHHQTTNDTSQHSDDDSNDRRENDSNISETVERAHQEESSEDVGGDMVETLNGQTKLNNGNSVPTVKDELNPKPASLSIPKKTKHMKRNESNEDIRRRINIKNSIVVKCVLQLLMIELLNELFENEDFAHCIPYKEAIRITRLLEKSYEFSRDFNEDYGLRTRLVEARVVDKIPNLLKQETSAAAVLLDIMFQLYLNDDEKKADLITRLITICIQVVEGYVSLDDRTMERSINAWRSVIVEILQGYYEFDDEDFRLYCPAMYALVIQILDKSVPTELRHAIKQFLSRVGELYLSTD
B2: Sec7ΔC+HDS1, Sec7 residues 203-1220, purified (domain or fragment, yeast, UniProt P11075 203-1220, looked up)
chain: PRSTHTRNISLSSNGSNTNSTIILVKTTLETILNDKDIKKNSNAQKAIERTLQKFKEFDPQTTNNPHYVDSILVFEALRASCRTKSSKVQSLALDCLSKLFSFRSLDETLLVNPPDSLASNDQRQDAADGITPPPKQKIIDAAIDTISDCFQGEGTDDRVELQIVRALSSCILEEDSSSLCHGASLLKAIRTIYNVFVFSLNPSNQGIAQATLTQIISSVYDKIDLKQSTSSAVSLSTKNHQQQSAIELSEASENAETPAPLTLENMDKLNDDEERLMDAQQPDSIAITNQDLAVKDAFLVFRVMAKICAKPLETELDMRSHAVRSKLLSLHIIYSIIKDHIDVFLSHNIFLPGKERVCFIDSIRQYLRLVLSRNAASPLAPVFEVTLEIMWLLIANLRADFVKEIPVFLTEIYFPISELTTSTSQQKRYFLSVIQRICNDPRTLVEFYLNYDCNPGMPNVMEITVDYLTRLALTRVEITQTQRSYYDEQISKSLSTYNFSQLPLLTSSNLSSSPDVGQVNLLFPLDFALKMVSLNCIVSVLRSLSSWAHKALNPNTHTANKVLLNTTSSARQESRSSLSNDVRSSIMTSNDDFKPTYEDEESRSLSSQNIDADDPTQFENLKLRKTALSECIAIFNNKPKKAIPVLIKKGFLKDDSPISIAKWLLETEGLDMAAVGDYLGEGDDKNIAIMHAFVDEFDFTGMSIVDALRSFLQSFRLPGEGQKIDRFMLKFAERFVDQNPGVFSKADTAYVLSYSLIMLNTDLHSSQIKNKMSLQEFLENNEGIDNGRDLPRDFLEGLFNEIANNEIKLISEQHQAMLSGDTNLVQQQQSAFNFFNSRDLTREAYNQVSKEISSKTELVFKNLNKNKGGPDVYYAASHVEHVKSIFETLWMSFLAALTPPFKDYDDIDTTNKCLEGLKISIKIASTFRINDARTSFVGALVQFCNLQNLEEIKVKNVNAMVILLEVALSEGNYLEGSWKDILLVVSQMERLQLISKGIDRDTVPDVAQARVANPRVS

Target: the molecule itself
Assay: combined sedimentation/Stokes analysis

| Protein | stoichiometry N |
| --- | --- |
| B1 | 2 |
| B2 | 2 |
